Molecular target: C. reinhardtii Rubisco (CrRubisco), L8S8 holoenzyme (C. reinhardtii (endogenous in strain CC-2677)) (UniProt P00877)
Experiment: co-sedimentation; droplet sedimentation assay of demixed (phase-separated) EPYC1-Rubisco droplets, with microscopy: 10 µl reactions, 10 min, 20 mM Tris-HCl pH 8.0, 50 mM NaCl, room temperature, 21,100 x g, SDS-PAGE and densitometry of pellet and supernatant

## Essential Pyrenoid Component 1 (EPYC1), residues 46-317 (natural protein)
  stoichiometry N (EPYC1:Rubisco): 1 to 4
  stoichiometry N (EPYC1 molecules per Rubisco holoenzyme): 2

Source: publication PMC6265248
